A word on the Km: it is the substrate concentration at which the rate is half of its maximum. A word on the Vmax: it is the top rate of the reaction or transport when substrate is in excess.

The data set concerns CC(C)(COP(=O)(O)OP(=O)(O)OC[C@H]1O[C@@H](n2cnc3c(N)ncnc32)[C@H](O)[C@@H]1OP(=O)(O)O)[C@@H](O)C(=O)NCCC(=O)NCCSC(=O)CCC(=O)O. Description: Malyl-CoA reductase activity, reductive sense (Assay 1). It counts as biochemical, Porphyromonas gingivalis W83. To be noted: other: reductive sense, succinyl-CoA added directly, NADPH, pH 7.5, 37° C. As to the method:
NCBI references of the utilized mcr and sucD protein sequences, and the references for the corresponding natural and synthetic DNA sequences are listed in Table 2.
Expression and purification of Pg-SucD was carried out as described in Example 1 using plasmid pET28-Pgi-sucD.
Malyl-CoA reductase activity was assayed in the reductive and in the oxidative sense of the reaction employing Assay 1 or Assay 2, respectively.
Assay 1 (Reaction Scheme): glyoxylate+acetyl-CoA→malyl-CoA+acetate Malyl-CoA lyase: (L)-Malyl-CoA+NADPH→(L)-Malate semialdehyde+Coenzyme A+NADP Malyl-CoA reductase: Assay 2 (Reaction Scheme): (L)-Malate semialdehyde+Coenzyme A+NADP→(L)-Malyl-CoA+NADPH The reaction mixture according to Assay 1 contained 50 mM MOPS/KOH (pH 7.5), […], and appropriate amounts of purified malyl-CoA reductase or cell extract. Reactions were started by adding glyoxylate. Enzymatic assays were carried out at 37° C. in 96-well flat bottomed microtiter plates in a final volume of 250 μL. The reactions were followed by the characteristic absorption of NADPH at 340 nm (εNADPH=6.22 mM^−1 cm^−1) in a microplate reader (BioRad 680XR).

As for “Porphyromonas gingivalis succinyl-CoA reductase (Pg-SucD), wild type, SEQ ID No. 10 (Porphyromonas gingivalis W83)”, the Michaelis-Menten constant (Km) came out at 1000 µM and the Vmax was 1 µmol/min/mg.

Source of the values: US9890400B2, “Method of production of 2,4-dihydroxybutyric acid” (ADISSEO FRANCE S.A.S., priority 2012, dated 2018).
